Assay results reported in the DeepSol protein solubility set.

test: soluble on expression in E. coli; label from the status in PepcDB or PDB records

Q: Which “soluble on expression in E. coli” value does the source give for “MDYQLYTLPSGLHVVYKPHAGEVTYAGFAIGVGTRHESSRHHGLAHLTEHMLFKGTSLRNSLQIIRRMEEVGAELNAFTEKESTYVYCIFPKAHFNRATNLLFDIVQHSRFPEEELTKEKTVVIDEIDSYRDNPSELIFDEFENILFRHHPLGHNILGTEASVSRITGQIGRNFLRRHYRPDNMIFFLAGEADLSDWPLNPAEKVSIRNTDGTPLHTLREGFLPRTIRRHKDTYQHHILMGGPAYSLHDDRRIPLSLLNNILGGPGMNSRLNLSLREEHGYVYNVESNYTPYSDTGVFNIYLGCAPRYAEAAMELVRKELRYLIEHPLSPIELESAKRQFKGQLIVSADNKESTFLSLGKSMLLYGKYDPLSDIFHRIDAITSDRLREIAAEVLNPDSMLTLIYC” here?
A: Its value is “not soluble”.

Q: For “GPGSMYVLYCCTMQGYSQLSGSSSDENIVHPLSSDGNTVTISPTYTLRMHFLPQHQVAKGAEKNNQIELSVAPTDALIINFPEGTEGSETEVMEQLIGTGRWQWVVPMRPFDGYDSTRSYRLKARRFPVAAGDDSNELTPPTIVHVPNISSIIEAGMRVSNRSQSGLHRSRGGVVCFVVGADPSVVRVPEGKKLLEQLFSEVGRSTISTATLGLRQLHNANWALFISPCRTNKLFAWKERLPSSSVSSGSLWWLCAAADVLLEINTAAEWVTAHFD”, which “soluble on expression in E. coli” value is on record?
A: Its value is “not soluble”.

Q: With “MNNNEIYVSLDIGTSNVRIIIGEITDGSINIIGVGNAPSEGIKKGSIVDIDETVRSIRRAVEQAERMVGLSIRQVIVGVNGNHVQLQPCHGVVAVSSPDREIGDEDIARVIDAAQVVSIPPEREIIDVIPKQFIVDGLDEINDPRGMIGVRLEMEGTIITGSKTLLHNLLRCVERAGLEVADICLQALAAGSVAISKDEKSLGVCLIDIGGGSMTISCFEQGSLVDTSVIPVGGDHVTNDIAVGLRISTEEAIKIKHTHGHAYIDEASEEDRFEVKAIGSTEPEAFSQFELAHIIEPRMEEMFELINRELRRLGQHDFPGGFVLTGGSVMMPGVLELAKETLGRNVRVAIPDYIGVREPQYTTGVGLIQFAYKNVKIQGKEVAAAVAEAGVEQEQRPKKEKERSRTNEGPGVKSKVKNWFKVFLE” as the sequence, how does the “soluble on expression in E. coli” value read?
A: The value was “not soluble”.

Q: With “MHYCEPGWFELIRHRLAFFKDNAAPFKILFLADLHYSRFVPLSLISDAIALGIEQKPDLILLGGDYVLFDMSLNFSAFSDVLSPLAECAPTFACFGNHDRPVGTEKNHLIGETLKSAGITVLFNQATVIATPNRQFELVGTGDLWAGQCKPPPASEANLPRLVLAHNPDSKEVMRDEPWDLMLCGHTHGGQLRVPLVGEPFAPVEDKRYVAGLNAFGERHIYTTRGVGSLYGLRLNCRPEVTMLELVLEHHHHHH” as the sequence, how does the “soluble on expression in E. coli” value read?
A: Its value is “not soluble”.

Q: Which “soluble on expression in E. coli” value does the source give for “MGSDKIHHHHHHVTLRQRIQAMSDCNRDPVSQITDLSGALVTIVPSLLACVGMVFASNLTDVTAEALLYDYREAANPLGQRLIARVPYQDWGAELHQTPETAIIPLDLSEALGCEGPATSPSLLANFVHILPNQAIETTAIATSQIFYVLRGQGVTRVADQEIAWTEGCCLALPADAIATHYAQTDSAFYWVHDAPLLRYLGVKPDRARFQPTLYRRQDLEATLAAIAADPQSRKANRLSVLLANQNFPQTRTITHTIWAMFGLLPPDVVQAPHRHQSVALDLILDCQPGCYTLVGTQLDERGQIRNPVRVDWRPYSVFVTPPGYWHAHYNESGQEAHLLPIQDAGLHTYLRTLDILFARHNGQISDEAA” here?
A: Its value is “not soluble”.

Q: For “MSDVAEEKAEFLVIRTYGSESFRKECADLIEKELHKLNATIARVPVGEFVAYAENAVKNETDSEAVGSSSVKRENSANDSPANTNDVDIVSSPVKRGRGRKAKNPSADADVNDTGSSPVKKGRGRPIKNPSADAGSPLVKKGRGRRAQTPAADTDAIDTASSPVKKGRGRPAKNPSADAGSPLVKKGRGRQAKNLAADTDAIDTASSPVKKGRGRPLKKTAAEADVNGLGSPSANRITGCPPSTKVSNQSSPPEPAVNESEEADEPVLKRGRSVKQPKDESESDDEDAEKAPAAIPKKRGRPGKSAIDAFFDGSD”, which “soluble on expression in E. coli” value is on record?
A: The value was “soluble”.

Q: With “GMKTNEVLETIKARRSVRAYDRKQIPADDLNAILEAGAYAPSGMHYETWHFTAVCNTVKLEELNERIKGAFAKSDDKHLRERGHSETYCCYYHAPTLVIVSNEPKQWWAGMDCACAIENMFLAATSLGIASCWINQLGTTCDDPEVRAYLTSLGVPENHKVYGCVALGYKAEGALLKEKTVKAGTITIVE” as the sequence, how does the “soluble on expression in E. coli” value read?
A: The value was “soluble”.

Q: With “MMNYRKADMKDISLLVSIRKRQLIDEGIEPNIDIDKELTRYFNNKLANNLLVEWIAEENNQIIATAAIAFIDFPPTYTNKTGRKGYITNMYTEPTSRGNGIATGMLDRLVNEAKERNIHKICLVASKLGRPVYKKYGFQDTDEWLELNLLEHHHHHH” as the sequence, how does the “soluble on expression in E. coli” value read?
A: The value was “soluble”.

Q: With “GPGSMTTSDELPANGELDQPERIPDVVECERLKKAGNDLFAADRVAEALELYREAIKHAPLKPVKKPTQHRQDEVPPCGSEGTAQNSIGESSVVSEKSSAPGTEKSSKVGADDAAQDGDDDGIDYTLTSQVYCNAGLCLSKQGMPEDAITHLSEAIRHNKQYSKAYYRRAECYYVLGKWSNAYGDYEEYEKLGGTLDAGSQDRKRQAKAKVDEEMQKMLGELKNMGNRFLNYFGLSTDNFKFDKDPNTGGYSVRFEQ” as the sequence, how does the “soluble on expression in E. coli” value read?
A: Its value is “not soluble”.

Q: For “GMADLTHEFWDRLEDVRSGMLGIKGQGRLIPMSPQTDDDAPGAIWFITAKGTDLAKGVAAGPQPAQFVVSDDGEGLYADLDGTLERSTDREALDEFWSFVADAWFDGGQHDPDVCLLKFTPASGEISITEGGGARFLYEIAKAHLTDETPDMGEQATVTF”, which “soluble on expression in E. coli” value is on record?
A: The value was “soluble”.

Q: For “MGSDKIHHHHHHMKSFVIEDEFWSLFPNAKIGVVICHSIDNSIKDENQYKDMISNSEEEALSYLKNEEFSSNEVIKVWREAFQKFKTKKGARSSIEALLKRVHKGNHIGTINPLVDIYNSISLRYAMPCGGEDIDAFAGDIRLTKAVGNESFVTLGTDKNEPPYEGEIVYKDNEGAICRCFNWRESVRTMLTENTKNAFLCIELIDETRVKEFEDALDTLAKTVQDNLGGNCKISTLDINNKSVVID”, which “soluble on expression in E. coli” value is on record?
A: The value was “not soluble”.

Q: For “CSLIPDYQRPEAPVAAAYPQGQAYGQNTGAAAVPAADIGWREFFRDPQLQQLIGVALENNRDLRVAALNVEAFRAQYRIQRADLFPRIGVDGSGTRQRLPGDLSTTGSPAISSQYGVTLGTTAWELDLFGRLRSLRDQALEQYLATEQAQRSAQTTLVASVATAYLTLKADQAQLQLTKDTLGTYQKSFDLTQRSYDVGVASALDLRQAQTAVEGARATLAQYTRLVAQDQNALVLLLGSGIPANLPQGLGLDQTLLTEVPAGLPSDLLQRRPDILEAEHQLMAANASIGAARAAFFPSISLTANAGTMSRQLSGLFDAGSGSWLFQPSINLPIFTAGSLRASLDYAKIQKDINVAQYEKAIQTAFQEVADGLAARGTFTEQLQAQRDLVKASDEYYQLADKRYRTGVDNYLTLLDAQRSLFTAQQQLITDRLNQLTSEVNLYKALGGGWNQQTVTQQQTAKKEDPQAHHHHHH”, which “soluble on expression in E. coli” value is on record?
A: The value was “soluble”.

Q: With “MNLLKTIEKVKANWGGKYFSIEFVKNPKKVVRDWRNSGGIVVHLTMYGIPIDNIMEKIINKNTKILVVVGSEKVEGWYYYNSDYNIAIGNQPHSEVAALAIFLDRIYKGGELNIQFSDAKLSIIPQERGKKVRKNE” as the sequence, how does the “soluble on expression in E. coli” value read?
A: Its value is “soluble”.

Q: With “MANMLKIAMLSTGEEVLHGDIVDSNAAWLAREFYQHGFSLAKRATVGDSLPALVEELMMLSFNSDVVIVNGGLGPTSDDITAQAAAQAAEQPLVLNADWLSQLEAFFIGRGRAMPESNRKQAMLPANAEVIDNPIGTACGFKMQINDCWFYFTPGVPKEFYKMVSEQILPNLQRQFPSVQGQQCSRLYTFGTSESSISDKLDKMHLPEGYTLGYRSYLPFIEVKLFGPDQDQERRLSLLKIIHSHLEQYVVSIDEPMLTYLGHVMAEKGLSLALAEQATQGGLSSWLLSDPNVEALAGHSWILSHRVSSELAHQDPLAAAFALAGATKDKCGTQMALVTGALKEDHVSVALSTPNGEWGQTVKFVRRFSAQEQKEWIATLAADMLLRYLTGRSMFVGYSAVERVKEMHLPSSVLN” as the sequence, how does the “soluble on expression in E. coli” value read?
A: The value was “not soluble”.

Q: Which “soluble on expression in E. coli” value does the source give for “MGSDKIHHHHHHMKKIHGKVMVERHHLEILRAVERQGSLTAAAEQLHLTQSALSHAIRKLEQQLGTSVWLREGRQLRLTQAGHQLLALANRLLPQFEHAEMQIHQIAQGQRGSLRVGMECHPCYQWLLKVVGPYLQQWPDVDVDVKQEFQFGGMGALFGHDIDLLVTPDPLHKPGVRFEPVFDYEQVLVVSEDHSLADEKWVEPHQLEKETLITYPVAVERLDIFTRFFLPAHTAPARHKTIETTDIMLQMVAAGRGVSALPRWLVDDYARNMPIRALKLGQQGMPKQIFLGFRERDEAVDYLNAFVKLARSIRWN” here?
A: Its value is “not soluble”.

Q: With “WNHDEEARGSVRWRTLFDTALTSENVILYAQSVHSISDATHKKALHEELTCRIRDPENGIVKASRFISAIRQVGYEAQMDRAVLHKFLKDFKENFDSSKNYALNLNVTPFSSREYFKWFRDELLQLSREQRKCLNFEFVEAQFVRHLDFMRPVAKMLAGLGCHLMVGQAGRTIVSTHYLKEVDIRYLKLHRSLVAKIDQRHENQLFVRSMLGAAANSKTKIIAVGIENQQELNTLLELGVYGGQGRYFSAE” as the sequence, how does the “soluble on expression in E. coli” value read?
A: The value was “not soluble”.

Q: For “MAIQLSKGQRIDLTKTNPGLTKAVIGLGWDTNKYSGGHDFDLDASAFLVDAHDNCVNDLDFVFYNNLEHPSGGVIHTGDNRTGEGDGDDEQIIVDFSKIPAHIEKIGITVTIHDAEARSQNFGQVSNAFVRVVDEETQNELLRFDLGEDFSIETAVVVCELYRHGGEWKFNAIGSGFSGGLAALCRNYGLQVLEHHHHHH”, which “soluble on expression in E. coli” value is on record?
A: Its value is “soluble”.

Q: Which “soluble on expression in E. coli” value does the source give for “TGAGTPSQGKKNTTTHTKCRRCGEKSYHTKKKVCSSCGFGKSAKRRDYEWQSKAGE” here?
A: Its value is “soluble”.

Q: Which “soluble on expression in E. coli” value does the source give for “MSLGTLASLHLNSGDAHHKQRTVTILEFSSSLKLVYKPRSLKVDGVFNGLLAFLNDRTGEVIKDQYCPKVLQRDGYGYVEFVTHQSCQSLEEVSDFYERLGSLMSLSYVLNSSDFHFENIIAHGPYPVLIDLETIIHNTADSSEETSTAMDRAFRMLNDSVLSTGMLPSSIYYRDQPNMKGLNVGGVSKSEGQKTPFKVNQIANRNTDEMRIEKDHVTLSSQKNLPIFQSAAMESVHFLDQIQKGFTSMYQWIEKNKQEFKEQVRKFEGVPVRAVLRSTTRYTELLKSSYHPDLLRSALDREVLLNRLTVDSVMTPYLKEIIPLEVEDLLNGDVPYFYTLPEERALYQEASAINSTFFTTSIFHKIDQKIDKLGIEDHTQQMKILHMSMLASNANHYADVADLEGHHHHHH” here?
A: The value was “not soluble”.

Q: For “MSHGHSHDGAPCGGHHGDDGAGGSRPSVNDVQALVDQLRLAGVDVSNMPNIPTAPRDMDEARSKSFQFWSTQPVPQMDETVPADVNCAIEENIALDKVRAEPFSLPAGFRWSNVDLSDEEQLNELYNLLTRNYVEDDDSMFRFDYSADFLKWALQVPGFRPEWHCGVRADSNNRLLAFIGAVPQTVRVYDKTVNMVEINFLCVHKNLRSRRVAPVLIREITRRVNVTGIFQAAFTAGIVIPKPVSVCRYYHRSLNPRKLIDVRFSHLSAKMTMARTIKLYKLPEETATRNLREMKSTDVPQVFKLLTTSLKQYSLAPVYNSEEELAHALVPKKGVVYSYVAENQNGKITDFVSFYSLPSTVMGHTTHKTIYAAYLYYYVAGSVTPKQLINDSLILANREKFDVFNALDLMHNEKIFSDLKFGKGDGNLQYYLYNWKCADMKPSQIGLVLQ”, which “soluble on expression in E. coli” value is on record?
A: Its value is “not soluble”.

Q: For “MYVQGKIGLDQLAEAERLHATLCREVQQRLDIRLRAHRAVLDELNERLADKLFCNFSVFQSIPDAWAIDQIFPVMPLQRLGEEPTRRAVIQDMTCDSDGRINAYIDRQSIENTLRMHAPAPGEPYLIGFFLVGAYQEILGDMHNLFGDTHSVDVELDGAGGYTFTHTRRGDGADDLLRYVHIDPDELERLEHHHHHH”, which “soluble on expression in E. coli” value is on record?
A: Its value is “not soluble”.

Q: For “MYRVLLSGAAGSGKGTIARMLVREFEPLGFNYFAAGDFIRDHIARGTEFGVRAQSFLNKGEHVPDSILNGAILAEMLKAGPRVVLDGYPRNMSQLKMVEEQAPLNLIVELKVPRKVLIDRLSKQLVHPASGRAYNLEVNPPKEEGKDDITGEPLFKRSTDQLEVARRRLEVYDKTENKVLDYYKKQNKCITMSGESSKAVFESVAEVMRRDLLTTTPRTAYA”, which “soluble on expression in E. coli” value is on record?
A: The value was “not soluble”.
